Data from publication PMC10778692.

T1: L-Malate dehydrogenase (UniProt P00346)
T1 sequence: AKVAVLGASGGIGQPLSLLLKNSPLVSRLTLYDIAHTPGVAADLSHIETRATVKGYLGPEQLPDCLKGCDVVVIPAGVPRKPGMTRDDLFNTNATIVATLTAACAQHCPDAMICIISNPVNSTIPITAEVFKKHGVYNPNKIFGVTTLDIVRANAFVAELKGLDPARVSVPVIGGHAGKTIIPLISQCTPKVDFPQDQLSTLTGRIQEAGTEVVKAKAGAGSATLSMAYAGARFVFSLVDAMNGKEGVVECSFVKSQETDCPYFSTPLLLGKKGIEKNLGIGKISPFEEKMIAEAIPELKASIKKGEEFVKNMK


Assays:
[1] = target: insulin
[2] = target: T1, L-Malate dehydrogenase

| DTT-induced aggregation of insulin with F113Y (5:1 substrate to sHsp), reduction in the peak level of light scattering at 340 nm [1] [%] | heat-induced (55 °C) aggregation of MDH with R116C, reduction of light scatter at 340 nm against substrate alone [2] [%] | Binder |
| --- | --- | --- |
| > 50 |  | HspB5 F113Y (natural protein) MDIAIHHPWIRRPFFPFHSPSRLFDQFFGEHLLESDLFPTSTSLSPFYLRPPSFLRAPSWFDTGLSEMRLEKDRFSVNLDVKHFSPEELKVKVLGDVIEVHGKHEERQDEHGYISREFHRKYRIPADVDPLTITSSLSSDGVLTVNGPRKQVSGPERTIPITREEKPAVTAAPKK |
|  | 16 | HspB5 R116C (natural protein) MDIAIHHPWIRRPFFPFHSPSRLFDQFFGEHLLESDLFPTSTSLSPFYLRPPSFLRAPSWFDTGLSEMRLEKDRFSVNLDVKHFSPEELKVKVLGDVIEVHGKHEERQDEHGFISCEFHRKYRIPADVDPLTITSSLSSDGVLTVNGPRKQVSGPERTIPITREEKPAVTAAPKK |
